From PMC3529520

What was measured:
[1] = molecular target: YFP-tagged murine Syx S806A (mouse) (UniProt Q66T02); test: co-IP
Mupp1 = Mupp1 (UniProt O75970); test: co-IP with anti-GFP, Mupp1 blot; settings: reference: wild-type YFP-Syx; sites S806

Sequence of UniProt Q66T02 (Q66T02 whole entry S806A): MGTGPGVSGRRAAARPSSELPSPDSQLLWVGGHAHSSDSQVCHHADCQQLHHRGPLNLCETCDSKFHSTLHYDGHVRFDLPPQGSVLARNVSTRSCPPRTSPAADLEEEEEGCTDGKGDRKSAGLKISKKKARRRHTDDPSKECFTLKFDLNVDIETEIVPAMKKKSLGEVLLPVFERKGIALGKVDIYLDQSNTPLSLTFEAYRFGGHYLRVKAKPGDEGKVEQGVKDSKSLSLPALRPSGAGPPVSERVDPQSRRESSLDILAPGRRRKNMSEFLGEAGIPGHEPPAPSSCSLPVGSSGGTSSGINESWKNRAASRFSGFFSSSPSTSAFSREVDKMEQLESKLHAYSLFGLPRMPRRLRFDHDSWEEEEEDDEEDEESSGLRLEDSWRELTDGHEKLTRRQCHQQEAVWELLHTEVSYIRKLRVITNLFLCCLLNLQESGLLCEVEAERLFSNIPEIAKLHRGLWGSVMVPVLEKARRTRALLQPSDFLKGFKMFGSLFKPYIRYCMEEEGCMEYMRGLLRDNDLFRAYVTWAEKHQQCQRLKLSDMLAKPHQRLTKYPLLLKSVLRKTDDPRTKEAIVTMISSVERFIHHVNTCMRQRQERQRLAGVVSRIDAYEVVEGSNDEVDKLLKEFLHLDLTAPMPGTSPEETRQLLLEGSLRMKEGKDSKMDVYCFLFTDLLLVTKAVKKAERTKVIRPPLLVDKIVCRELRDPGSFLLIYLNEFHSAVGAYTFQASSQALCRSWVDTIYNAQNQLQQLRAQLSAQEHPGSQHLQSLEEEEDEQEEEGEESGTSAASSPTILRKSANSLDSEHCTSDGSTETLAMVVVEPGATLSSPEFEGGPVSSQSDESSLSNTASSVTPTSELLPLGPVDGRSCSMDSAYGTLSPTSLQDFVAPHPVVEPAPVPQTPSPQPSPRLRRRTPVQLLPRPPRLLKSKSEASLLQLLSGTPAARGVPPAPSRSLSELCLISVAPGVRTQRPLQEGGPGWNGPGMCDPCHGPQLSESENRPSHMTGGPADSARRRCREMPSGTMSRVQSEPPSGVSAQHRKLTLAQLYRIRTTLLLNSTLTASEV

amount of Mupp1 coimmunoprecipitated, fold of that with YFP-Syx [1] | fold change (Mupp1) | Substance
2 fold | – | Mupp1 (multiple PDZ domain protein 1), O75970 1-2070
– | stronger | Syx (murine, YFP-mSyx) (from UniProt Q66T02) YFP-Syx-S806A
